In paper PMC11372445 (Cell Reports, 2024):
Each block holds one binder with its values, some of them ahead of it.

Experiments:
M1-linked diubiquitin [1] = molecular target: M1-linked diubiquitin (UniProt P0CG47); assay: pull-down
M1-linked diubiquitin [2] = molecular target: M1-linked diubiquitin (UniProt P0CG47); assay: crystal structure
crystal structure = molecular target: the molecule itself; assay: crystal structure
NEMO UBAN (aa 257–364) = NEMO UBAN (aa 257–364) (human, UniProt Q9Y6K9 257-364); assay: pull-down
[3] = molecular target: K6 diUb phosphorylated on S65 of the proximal Ub (UniProt P0CG47, K6R); assay: pull-down
[4] = molecular target: K6 diUb phosphorylated on S65 of the distal Ub (UniProt P0CG47, K6R); assay: pull-down
[5] = molecular target: K6 diUb phosphorylated on S65 of both Ub molecules (UniProt P0CG47, K6R); assay: pull-down

binding result (M1-linked diubiquitin [1]): binds
B1: NEMO UBAN (257–364) K285C/C347S chemically ubiquitinated on K285C with Ub G76C (other)
chain 1: GMQLEDLKQQLQQAEEALVAKQEVIDKLCEEAEQHKIVMETVPVLKAQADIYKADFQAERQAREKLAEKKELLQEQLEQLQREYSKLKASSQESARIEDMRKRHVEVS
chain 2: […]

binding result (M1-linked diubiquitin [2]): binds
Binder: RGRWACQSCTFENEAAAVLCSICERPRLA (domain or fragment) [HOIP NZF1 (aa 351–379), as crystallised]

B2: OPTN UBAN (aa 419–512) C472S, S473E (domain or fragment)
chain: DRAVLKELSEKLELAEKALASKQLQMDEMKQTIAKQEEDLETMTILRAQMEVYSEDFHAERAAREKIHEEKEQLALQLAVLLKENDAFEDGGRQ
binding result (crystal structure): binds

binding result (NEMO UBAN (aa 257–364)): binds
Binder: RGRWACQSCTFENEAAAVLCSICERPRLA (domain or fragment) [His6-SUMO-HOIP NZF1 (aa 351–379)]

binding result [3]: binds | binding result [4]: binds | binding result [5]: binds
B3: GST-tagged TAB2 NZF (aa 585–693) (domain or fragment)
chain: QIPSLEEMQQLRSCNRQLQIDIDCLTKEIDLFQARGPHFNPSAIHNFYDNIGFVGPVPPKPKDQRSIIKTPKTQDTEDDEGAQWNCTACTFLNHPALIRCEQCEMPRHF
